Experimental data taken from patent US20150118184A1 (Chugai, published 2015).
Where a chain is given by its changes, count along the chain named.

T1: mouse LAMP5 having a V5 tag added to the N-terminal thereof, expressed on CHO cells (mLAMP5 CHO) (mouse, UniProt Q9D387 30-280)
T1 construct: also called mouse-origined LAMP5; V5-mLAMP5
T1 sequence: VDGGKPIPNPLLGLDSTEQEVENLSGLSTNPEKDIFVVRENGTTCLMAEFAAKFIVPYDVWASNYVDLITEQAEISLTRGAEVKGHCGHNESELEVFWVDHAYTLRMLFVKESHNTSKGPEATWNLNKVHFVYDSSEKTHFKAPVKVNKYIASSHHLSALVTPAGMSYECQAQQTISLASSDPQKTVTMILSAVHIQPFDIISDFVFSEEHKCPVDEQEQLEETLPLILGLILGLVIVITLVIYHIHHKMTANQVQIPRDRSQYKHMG

T2: LAMP5 (endogenous, on KHM-1B multiple myeloma cells and in cancer cell line lysates) (human, UniProt Q9UJQ1 30-280)
T2 construct: Endogenous LAMP5 of the cell lines; also called BAD-LAMP; C20orf103
T2 sequence: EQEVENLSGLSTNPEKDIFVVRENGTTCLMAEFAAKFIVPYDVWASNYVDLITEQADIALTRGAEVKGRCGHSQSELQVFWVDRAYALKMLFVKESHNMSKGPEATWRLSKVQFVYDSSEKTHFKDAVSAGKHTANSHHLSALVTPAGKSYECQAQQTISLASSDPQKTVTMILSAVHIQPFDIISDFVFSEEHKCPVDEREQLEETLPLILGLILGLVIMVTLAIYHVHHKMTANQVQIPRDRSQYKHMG

B1: anti-LAMP5 monoclonal antibody D9 (antibody, V domains shown)
VH: EVKLVESGGGLVKPGGSLKLSCAASGFTFSSYAMSWVRQTPEKRLEWVASISSGGSTYYPDSVKGRFTISRDNARNILYLQMSSLRSEDTAMYYCARLITTRFAYWGQGTLVTVSA
VL: ENVLTQSPAIMSASPGEKVTMTCRASSSVSSSYLHWYQQKSGASPKLWIYSTSNLASGVPARFSGSGSGTSYSLTISSVEAEDAATYYCQQYSGYPLTFGSGTKLEIK
notes: also called clone D9; D9 antibody
B2: anti-LAMP5 monoclonal antibody D1 (antibody, mouse IgG1, V domains shown)
VH: EIQLQQSGPDLVKPGASVKVSCKASGFAFSTYNMYWVKQSHGKSLEWIGYIDPYNGDITYNQKFKGKATLTVDKSSSTAYMHLNSLTSEDSAVYYCARRDYFYAMDYWGQGTSVTVSS
VL: DIVMTQSHKFMSTSVGDRVSITCKASQGVGTAVAWYQQKPGQSPKLLIYWASTRHTGVPDRFTGSGSGTDFTLSVTNVQSEDLADYFCHQYSSYPLTFGSGTKLELK
notes: also called clone D1; D1 antibody
B3: anti-LAMP5 monoclonal antibody D10 (antibody, V domains shown)
VH: B2 VH with D10E, F27Y, S30T, T31S, D57G, T59S
VL: B2 VL with S74T, V75I, H89Q
notes: also called clone D10; D10 antibody
B4: anti-LAMP5 monoclonal antibody D2 (antibody, mouse IgG1, V domains shown)
VH: EVKLEESGGGLVQPGGSMKLSCTASGFTFSDAWMDWVRQSPEKGLEWVAEIRGKADNHATYYAESVKGRFTISRDDSKSSVYLQMNSLRTEDTAIYYCIPYYRYAMDYWGQGTSVTVSS
VL: QIVLTQSPAIMSASPGEKVTITCTASSSVSYMHWFQQKPGTSPKLWIYATSYLASGVPTRFSGSGSGTSYSLTISRMEAEDAATYYCQQKSNYPWTFGGGTNLEIK
notes: also called clone D2; D2 antibody

Biological target: T1, mouse LAMP5 having a V5 tag added to …
Assay: FACS on mLAMP5 CHO cells, FITC anti-mouse IgG
Experimental: (§1) Binding of the anti-LAMP5 monoclonal antibody produced in Example 2 to LAMP5 and mLAMP5 was evaluated by FACS. First, LAMP5 CHO (Example 2) or mLAMP5 CHO was suspended in FACS/PBS (PBS(−) comprising 0.2% bovine serum albumin (BSA) and 0.1% sodium azide) followed by disseminating into the wells of a 96-well round bottom plate at 5×10⁴ cells per well. After adding anti-LAMP5 monoclonal antibody to each well to a final concentration of 10, 2, 0.4, 0.08 or 0.016 μg/ml, the mixture was allowed to react for 1 hour on ice. After reacting, the cell suspensions were washed with FACS/PBS and allowed to react for 1 hour with FITC-labeled anti-mouse IgG antibody on ice. After reacting, the cells were washed with FACS/PBS and then suspended in FACS/PBS comprising 10 μg/ml of propidium iodide (Sigma-Aldrich Co. LLC.). The staining intensity of the cells was measured with a flow cytometer. Only viable cells not stained with propidium iodide were used in data analysis. As a result, clones D1, D2, D9 and D10 all bound concentration-dependently to LAMP5 (FIG. 2A). Clones D1, D2 and D10 in particular bound strongly in comparison with clone D9 (FIG. 2A). […] Clone D10 only bound weakly to mLAMP5 (FIG. 2B).

| Binder | binding result |
| --- | --- |
| B1 | no binding (tested: 10 µg/ml (highest concentration tested)) |
| B2 | no binding (tested: 10 µg/ml (highest concentration tested)) |

Biological target: T2, LAMP5 (endogenous, on KHM-1B multiple …)
Assay: FACS on KHM-1B cells with or without IL-6 stimulation, 10 µg/mL antibody
Experimental: as §1
Next, LAMP5 expression was measured by FACS in KHM-1B cells (with or without IL-6 stimulation). FACS was carried out in the same manner as Example 4 using anti-LAMP5 monoclonal antibodies D1, D2, D9 and D10 and a negative reference in the form of IgG1κ (Pharmingen Inc., Cat. No. 553447) at concentrations of 10 μg/mL. As a result, LAMP5 was detected on the cell membrane of KHM-1B cells, and the expressed amount thereof was confirmed to be increased by IL-6 stimulation (FIG. 4).

| Binder | binding result |
| --- | --- |
| B1 | binds |
| B2 | binds |
| B3 | binds |
| B4 | binds |
